Tests used:
[1] = molecular target: human 26S proteasome (human | human (endogenous in HEK293)) (UniProt O00487)
[2] = molecular target: human 26S proteasome (human | human (endogenous in HEK293)) (UniProt O00487); remark: listed apart in the source
[3] = molecular target: human 26S proteasome (human | human (endogenous in HEK293)) (UniProt O00487); assay: single-molecule TIRF microscopy

Binder	increase of the initial (phase I) degradation rate of ubiquitylated cycB-cpGFP [1] [%]	increase of the late (phase II) degradation rate of ubiquitylated cycB-cpGFP [1] [%]	stimulation of peptide hydrolysis of purified 26S proteasome [2] [fold]	dwell-time constant, first (short-binding) exponential mode [3] [ms]	dwell-time constant, second (long-binding) exponential mode [3] [ms]
ZFAND5/ZNF216, recombinant wild type (natural protein) MAQETNQTPGPMLCSTGCGFYGNPRTNGMCSVCYKEHLQRQQNSGRMSPMGTASGSNSPTSDSASVQRADTSLNNCEGAAGSTSEKSRNVPVAALPVTQQMTEMSISREDKITTPKTEVSEPVVTQPSPSVSQPSTSQSEEKAPELPKPKKNRCFMCRKKVGLTGFDCRCGNLFCGLHRYSDKHNCPYDYKAEAAAKIRKENPVVVAEKIQRI	24	71	< 10		
His6-SNAP-ZFAND5wt (natural protein, SNAP tag labelled with SNAP-Surface 649 (fluorescent form) or with SNAP-Biotin (immobilised form)) MAQETNQTPGPMLCSTGCGFYGNPRTNGMCSVCYKEHLQRQQNSGRMSPMGTASGSNSPTSDSASVQRADTSLNNCEGAAGSTSEKSRNVPVAALPVTQQMTEMSISREDKITTPKTEVSEPVVTQPSPSVSQPSTSQSEEKAPELPKPKKNRCFMCRKKVGLTGFDCRCGNLFCGLHRYSDKHNCPYDYKAEAAAKIRKENPVVVAEKIQRI				50	614
